Half-life data for 1 compound are collected here from article PMC5473807, “Distribution and kinetics of the Kv1.3-blocking peptide HsTX1[R14A] in experimental rats” (Scientific Reports, 2017).

Like-named read-outs stand apart in the source and are kept apart here.

A short description of the series: Blood clearance kinetics, arterial blood and PET. To be noted: whole blood, rat, read-out: blood clearance half-life corrected for the metabolites. The series is classed as in vivo. The method, then:
The procedures are described in detail elsewhere, [34], [35]. Rats were anesthetised using 9% ± 1% desflurane in 30% oxygen and placed on a heat mat. The animals were kept warm under anesthesia until the end of the scan with a total duration of 4 h. The anesthetised animals were localised in a prone position in the axial direction of the scanner. A needle catheter was installed in a lateral tail vein or subcutaneously in the neck for injection using a syringe pump. PET studies were performed with the dedicated small animal PETs NanoPET/CT (Mediso, Budapest, Hungary) and microPET^(R) P4 (Siemens Medical Solutions, Erlangen, Germany). […] Three-dimensional regions of interest (ROI) were determined for subsequent data analysis. The standardised uptake values (SUV, g/mL) and standardised uptake ratios (SUR, as ratio of the SUVs of the tissue of interest and the blood SUV, derived from a region over the caudal arteria abdominalis and vena cava) were used to quantify the activity uptake and kinetics.
The analysis of [^64Cu]Cu-NOTA-HsTX1[R14A] degradation was analysed in one rat after single intravenous injection. […] The samples were again centrifuged (3 min at 14,000 × g), resulting in the precipitate the protein bound fraction (plasma proteins) and the supernatants (e.g. plasma water fraction) were analysed by radio-TLC with RP18 aluminium foil, MeCN/0.1% TFA mixed with H2O/0.1% TFA (v/v 1:1). […]

The term half-life denotes the time needed for the level to fall by half in the phase considered. Turning to `CSCC[C@@H]1NC(=O)[C@@H]2CSSC[C@H](NC(=O)[C@H](CO)NC(=O)[C@H](C)NC(=O)COCCOCCNC(=O)CN3CCN(CC(=O)O)CCN(CC(=O)O)CC3)C(=O)N[C@@H](CCCNC(=N)N)C(=O)N[C@@H]([C@@H](C)O)C(=O)N3CCC[C@H]3C(=O)N[C@@H](CCCCN)C(=O)N[C@@H](CC(=O)O)C(=O)N[C@H]3CSSC[C@H](NC(=O)[C@H](CCCCN)NC(=O)[C@H](CCCNC(=N)N)NC(=O)[C@H](CC(N)=O)NC1=O)C(=O)N[C@@H](CCCCN)C(=O)N[C@H]1CSSC[C@H](NC(=O)[C@@H]4CCCN4C(=O)[C@H](CC(=O)O)NC(=O)[C@H](C)NC3=O)C(=O)N[C@@H](C)C(=O)N[C@@H](CCCCN)C(=O)N[C@@H](CCC(=O)O)C(=O)N[C@@H]([C@@H](C)O)C(=O)NCC(=O)N[C@@H](CSSC[C@@H](C(N)=O)NC(=O)[C@H](CCCNC(=N)N)NC(=O)[C@H](CC(N)=O)NC1=O)C(=O)N1CCC[C@H]1C(=O)N[C@@H](Cc1ccc(O)cc1)C(=O)NCC(=O)N[C@@H](CCCCN)C(=O)N2` [[^64Cu]Cu-NOTA-HsTX1[R14A], metal not drawn], the half-life by setting is: (iv, i.v.) 37 min; (sc, s.c.) 51 min.
